Source: patent US20230042176

How the values were obtained:
[1] = target: Flag-tagged BK (Flag-BK), overexpressed in HEK293 cells
[2] = target: BK, endogenous, in primary mouse cortical neurons, Q08460
Chain of BK, endogenous, in primary mouse cortical neurons, Q08460 (Q08460 whole entry): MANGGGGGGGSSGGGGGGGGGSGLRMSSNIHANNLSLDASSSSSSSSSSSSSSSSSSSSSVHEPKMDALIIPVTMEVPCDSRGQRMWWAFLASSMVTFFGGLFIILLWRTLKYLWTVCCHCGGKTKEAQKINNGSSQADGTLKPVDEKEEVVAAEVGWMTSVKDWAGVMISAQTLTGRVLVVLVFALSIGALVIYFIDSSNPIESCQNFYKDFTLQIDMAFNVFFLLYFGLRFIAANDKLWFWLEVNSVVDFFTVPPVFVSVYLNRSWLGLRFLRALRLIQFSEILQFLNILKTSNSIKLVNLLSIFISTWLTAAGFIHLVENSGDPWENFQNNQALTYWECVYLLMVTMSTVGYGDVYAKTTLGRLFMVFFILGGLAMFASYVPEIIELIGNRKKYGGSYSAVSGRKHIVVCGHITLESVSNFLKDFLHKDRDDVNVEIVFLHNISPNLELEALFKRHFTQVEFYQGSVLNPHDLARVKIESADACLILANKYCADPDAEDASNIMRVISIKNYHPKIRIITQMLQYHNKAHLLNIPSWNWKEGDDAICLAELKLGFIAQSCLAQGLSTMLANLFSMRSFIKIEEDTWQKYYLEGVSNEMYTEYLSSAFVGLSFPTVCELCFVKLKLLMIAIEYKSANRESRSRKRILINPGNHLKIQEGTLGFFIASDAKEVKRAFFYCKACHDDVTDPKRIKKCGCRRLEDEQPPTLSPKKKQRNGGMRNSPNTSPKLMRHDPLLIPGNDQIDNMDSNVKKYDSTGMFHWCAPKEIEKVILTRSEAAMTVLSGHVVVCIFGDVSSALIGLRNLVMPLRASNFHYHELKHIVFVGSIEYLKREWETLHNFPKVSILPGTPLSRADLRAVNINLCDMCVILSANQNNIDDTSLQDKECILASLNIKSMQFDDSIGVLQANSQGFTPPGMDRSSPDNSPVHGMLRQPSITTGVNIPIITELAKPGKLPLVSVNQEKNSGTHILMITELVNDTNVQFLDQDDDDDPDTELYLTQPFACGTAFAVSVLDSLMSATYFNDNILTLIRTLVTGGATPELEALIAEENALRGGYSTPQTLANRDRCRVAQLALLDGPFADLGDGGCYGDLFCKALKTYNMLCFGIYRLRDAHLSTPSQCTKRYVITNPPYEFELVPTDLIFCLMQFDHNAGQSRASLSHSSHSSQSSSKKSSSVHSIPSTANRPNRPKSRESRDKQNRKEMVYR

B1: UBE3A, recombinant, as used in the in vitro ubiquitination assay (ubiquitination kit K-230, Boston Biochem) (protein)
chain: MEKLHQCYWKSGEPQSDDIEASRMKRAAAKHLIERYYHQLTEGCGNEACTNEFCASCPTFLRMDNNAAAIKALELYKINAKLCDPHPSKKGASSAYLENSKGAPNNSCSEIKMNKKGARIDFKDVTYLTEEKVYEILELCREREDYSPLIRVIGRVFSSAEALVQSFRKVKQHTKEELKSLQAKDEDKDEDEKEKAACSAAAMEEDSEASSSRIGDSSQGDNNLQKLGPDDVSVDIDAIRRVYTRLLSNEKIETAFLNALVYLSPNVECDLTYHNVYSRDPNYLNLFIIVMENRNLHSPEYLEMALPLFCKAMSKLPLAAQGKLIRLWSKYNADQIRRMMETFQQLITYKVISNEFNSRNLVNDDDAIVAASKCLKMVYYANVVGGEVDTNHNEEDDEEPIPESSELTLQELLGEERRNKKGPRVDPLETELGVKTLDCRKPLIPFEEFINEPLNEVLEMDKDYTFFKVETENKFSFMTCPFILNAVTKNLGLYYDNRIRMYSERRITVLYSLVQGQQLNPYLRLKVRRDHIIDDALVRLEMIAMENPADLKKQLYVEFEGEQGVDEGGVSKEFFQLVVEEIFNPDIGMFTYDESTKLFWFNPSSFETEGQFTLIGIVLGLAIYNNCILDVHFPMVVYRKLMGKKGTFRDLGDSHPVLYQSLKDLLEYEGNVEDDMMITFQISQTDLFGNPMMYDLKENGDKIPITNENRKEFVNLYSDYILNKSVEKQFKAFRRGFHMVTNESPLKYLFRPEEIELLICGSRNLDFQALEETTEYDGGYTRDSVLIREFWEIVHSFTDEQKRLFLQFTTGTDRAPVGGLGKLKMIIAKNGPDTERLPTSHTCFNVLLLPEYSSKEKLKERLLKAITYAKGFGML
- in vitro ubiquitination assay (E1 Ube1, E2 UbcH5c, HA-Ub) [1]: BK ubiquitination by UBE3A was further confirmed by an in vitro ubiquitination assay using recombinant proteins (FIG. 11C)

B2: Ube3a, endogenous, in primary mouse cortical neurons (WT against Ube3a m-/p+ mice) (protein)
chain: MATACKRSPGESQSEDIEASRMKRAAAKHLIERYYHQLTEGCGNEACTNEFCASCPTFLRMDNNAAAIKALELYKINAKLCDPHPSKKGASSAYLENSKGASNNSEIKMNKKEGKDFKDVIYLTEEKVYEIYEFCRESEDYSPLIRVIGRIFSSAEALVLSFRKVKQHTKEELKSLQEKDEDKDEDEKEKAACSAAAMEEDSEASSSRMGDSSQGDNNVQKLGPDDVTVDIDAIRRVYSSLLANEKLETAFLNALVYLSPNVECDLTYHNVYTRDPNYLNLFIIVMENSNLHSPEYLEMALPLFCKAMCKLPLEAQGKLIRLWSKYSADQIRRMMETFQQLITYKVISNEFNSRNLVNDDDAIVAASKCLKMVYYANVVGGDVDTNHNEEDDEEPIPESSELTLQELLGDERRNKKGPRVDPLETELGVKTLDCRKPLISFEEFINEPLNDVLEMDKDYTFFKVETENKFSFMTCPFILNAVTKNLGLYYDNRIRMYSERRITVLYSLVQGQQLNPYLRLKVRRDHIIDDALVRLEMIAMENPADLKKQLYVEFEGEQGVDEGGVSKEFFQLVVEEIFNPDIGMFTYDEATKLFWFNPSSFETEGQFTLIGIVLGLAIYNNCILDVHFPMVVYRKLMGKKGTFRDLGDSHPVLYQSLKDLLEYEGSVEDDMMITFQISQTDLFGNPMMYDLKENGDKIPITNENRKEFVNLYSDYILNKSVEKQFKAFRRGFHMVTNESPLKYLFRPEEIELLICGSRNLDFQALEETTEYDGGYTRESVVIREFWEIVHSFTDEQKRLFLQFTTGTDRAPVGGLGKLKMIIAKNGPDTERLPTSHTCFNVLLLPEYSSKEKLKERLLKAITYAKGFGML
- endogenous BK ubiquitination (BK IP, ubiquitin antibody blot, primary mouse cortical neurons) [2]: BK ubiquitination by UBE3A was further confirmed ... by assessing endogenous BK ubiquitination using mouse cortical neurons derived from either WT or Ube3a^m-/p+ mice (FIGS. 11D-11E)
